{"source": "paper PMC4210143", "molecular_target": "soluble recombinant NadA_(Δ351-405) (rNadA), Neisseria meningitidis adhesin A lacking the membrane anchor region (Neisseria meningitidis) (UniProt Q8KH85)", "test": "SEC-MALS; rNadA 1,7 mg/ml in 10 mM NaH2PO4 150 mM NaCl pH 7.2, heated at 37°C for 30 min, 1, 2 and 4 hrs; TSK Super SW3000, eluted in 0.1 M NaH2PO4, 0,1 M NaHSO4 pH 7.0; MALLS detector Dawn TREOS", "data": [{"substance": "soluble recombinant NadA_(Δ351-405) (rNadA), Neisseria meningitidis adhesin A lacking the membrane anchor region (from UniProt Q8KH85 1-350) (domain or fragment)", "values": [{"measurement": "percent of the preparation present as the native trimer", "value": 95, "unit": "%"}, {"measurement": "stoichiometry N", "value": 3}]}]}
